This is an account of results in patent publication US6942980.

In test [1] the target is Gal-4 AD-RAR-γ fusion protein (Gal-4 activation domain joined to RAR-γ, from pACT-RAR-γ) (yeast; human) (UniProt P13631). Description: cell-based or functional assay.
The target of test [2] is T1, bacterially expressed glutathione-S-transferase (GST)-RAR-γ fusion protein (human) (UniProt P13631).
T1 sequence (looked up): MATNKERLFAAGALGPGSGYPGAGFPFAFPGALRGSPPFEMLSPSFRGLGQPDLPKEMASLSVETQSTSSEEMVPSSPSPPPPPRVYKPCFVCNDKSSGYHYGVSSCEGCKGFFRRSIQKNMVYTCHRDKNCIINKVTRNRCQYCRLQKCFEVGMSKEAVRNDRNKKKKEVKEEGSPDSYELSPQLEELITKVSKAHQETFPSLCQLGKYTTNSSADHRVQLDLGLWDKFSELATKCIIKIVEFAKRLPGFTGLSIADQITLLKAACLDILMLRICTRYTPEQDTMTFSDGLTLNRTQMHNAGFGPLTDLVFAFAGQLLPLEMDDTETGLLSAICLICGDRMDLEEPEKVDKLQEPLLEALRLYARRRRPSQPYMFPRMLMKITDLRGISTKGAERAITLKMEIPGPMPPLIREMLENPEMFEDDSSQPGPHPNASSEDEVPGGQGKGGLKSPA
Description: GST pull-down: 35S-labeled N-CoR-C' on GST-RAR-γ beads, incubation 20 minutes at 37° C.; phosphoimager quantitation.

The target in test [3] is T1, bacterially expressed glutathione-S-transferase (GST)-RAR-γ fusion protein (human). The test can be described thus: GST pull-down: 35S-labeled N-CoR-C' on GST-RAR-γ beads, incubation 20 minutes at 20° C.; phosphoimager quantitation.
Test [4] shares this target. Description: GST pull-down: 35S-labeled N-CoR-C' on GST-RAR-γ beads, incubation 20 minutes at 30° C.; phosphoimager quantitation.

In test [1], “GAL-4 DBD-N-CoR fusion protein (GAL-4 DNA binding domain fused to the full length N-CoR polypeptide, from pAS-N-CoR) (from UniProt P04386 1-147; Q60974 1-2453)” displayed a Units of β-galactosidase activity, yeast two-hybrid in Y190; 1 µM AGN 193109, Triplicate 1 of 5.91 units; a Units of β-galactosidase activity, yeast two-hybrid in Y190; 1 µM AGN 193109, Triplicate 2 of 4.43 units; a Units of β-galactosidase activity, yeast two-hybrid in Y190; 1 µM AGN 193109, Triplicate 3 of 4.15 units; a Units of β-galactosidase activity, yeast two-hybrid in Y190; 1 µM TTNPB, Triplicate 1 of 2.26 units. In test [1], this molecule returned a Units of β-galactosidase activity, yeast two-hybrid in Y190; 1 µM TTNPB, Triplicate 2 of 1.83 units; a Units of β-galactosidase activity, yeast two-hybrid in Y190; 1 µM TTNPB, Triplicate 3 of 1.96 units; a Units of β-galactosidase activity, yeast two-hybrid in Y190; Control (DMSO), Triplicate 1 of 2.18 units; a Units of β-galactosidase activity, yeast two-hybrid in Y190; Control (DMSO), Triplicate 2 of 2.12 units. In addition, in test [1], the Units of β-galactosidase activity, yeast two-hybrid in Y190; Control (DMSO), Triplicate 3 stood at 1.69 units; the β-Galactosidase Activity (units), yeast two-hybrid in Y190; 1 µM AGN 194310 worked out at 5.1 units; the β-Galactosidase Activity (units), yeast two-hybrid in Y190; Control (DMSO) was found to be 0.82 units.

B1: [35S]-radiolabeled in vitro translated N-CoR-C' (C-terminus of N-CoR, amino acids 1629-2453) (protein, UniProt Q60974 1629-2453, looked up)
chain: MQVNLRPDVTRGLSPREQPLGLPYPATRGIIDLTNMPPTILVPHAGGTSTPPMDRITYIPGTQVTFPPRPYNAASLSPGHPTHLAAAASAEREREREREKERERERERERERERERIAAAPADLYLRPGSEQPGRPGSHGYVRSPSPSVRTQETILQQRPSVFQGTNGTSVITPLDPTAQLRIMPLPSGGPSISQGLPASRYNTAADALAALVDAAASAPQMDVSKTKESKHEAARLEENLRSRSAAVSEQQQLEQKNLEVEKRSVQCVCTSSALPSGKAQPHASVVYSEAGKDKGPPPKSRYEEELRTRGKTTITAANFIDVIITRQIASDKDARERGSQSSDSSSSLSSHRYETASDAIEVISPASSPAPPQEKPQAYQPDMVKANQAENESTRQYEGPLHHYRSQQESPSPQQQPPLPPSSQSEGMGQVPRTHRLITLADHICQIITQDFARNQVPSQASTSTFQTSPSALSSTPVRTKTSSRYSPESQSQTVLHPRPGPRVSPENLVDKSRGSRPGKSPERSHIPSEPYEPISPPQGPAVHEKQDSMLLLSQRGVDPAEQRSDSRSPGSISYLPSFFTKLESTSPMVKSKKQEIFRKLNSSGGGDSDMAAAQPGTEIFNLPAVTTSGAVSSRSHSFADPASNLGLEDIIRKALMGSFDDKVEDHGVVMSHPVGIMPGSASTSVVTSSEARRDEGEPSPHAGVCKPKLINKSNSRKSKSPIPGQSYLGTERPSSVSSVHSEGDYHRQTPGWAWEDRPSSTGSTQFPYNPLTIRMLSSTPPTQIACAPSAITQAAPHQQNRIWEREPAPLLSAQYETLSDSDD
modifications: 35S-methionine radiolabel
In test [2], B1 registered a fold increase in interaction between RAR and N-CoR (1 µM AGN 193109 against vehicle alone, 37° C.) of 20.5 fold. For the same molecule, in test [3], the fold decrease in N-CoR binding (1 µM TTNPB against vehicle alone, 20° C.) was 2.6 fold and the fold increase in N-CoR binding (1 µM AGN 193109 against vehicle alone, 20° C.) amounted to 1.6 fold. In test [4], this molecule gave a fold decrease in N-CoR interaction with RAR (1 µM TTNPB against vehicle alone, 30° C.) of 4.5 fold and a fold increase in N-CoR interaction with RAR (1 µM AGN 193109 against vehicle alone, 30° C.) of 2.2 fold.
